± gives the uncertainty stated by the source.
Experiment: protein stability index of a GFP-peptide fusion (yeast GPS) (PSI 1-4); higher = more stable; sorted into four equal gates, so the index is relative within each strain
Conditions: doa10∆
Outline: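 Tiled 17-residue yeast protein peptides were fused downstream of GFP in a plasmid that also expresses Cherry, and the pooled library was carried in yeast. Mid-log cultures in leucine-free medium were sorted into four equal gates by GFP/Cherry fluorescence ratio, and plasmids from each gate were PCR-amplified and Illumina-sequenced, with reads assigned to strains by barcodes. The protein stability index for each peptide was each gate's read frequency times its gate number, summed.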

First: IKNLPADVSKLMYSITF [SRB2]
Second: IKNVQDLLILTRSIKEK [SRB6]
The protein stability index of the first is higher: 2.41 ± 0.054 for the first, 1.34 ± 0.11 for the second.

IKSIIEQRKQKLSKILP [SMC3] and IKTVVLVPQLGHVGSVQ [PRP8] are within error of each other in protein stability index: 2.44 ± 0.084 for the first, 2.42 ± 0.056 for the second.

Going from IKVEGAVGNLGNAVTVT [RPL22A] to IKVWTIKGQCLATLLGH [ASC1], the protein stability index falls from 3.39 ± 0.14 to 2.22 ± 0.085.

Going from ILADEMGLGKTLQTISF [ISW2] to ILDINVSSSKNKKSEEN [SWP82], the protein stability index rises from 3.09 ± 0.07 to 3.36 ± 0.15.

Going from ILDKIFYGVLDQGNGWL [RPN6] to ILEVGALASIQTFNFDS [RPN12], the protein stability index falls from 3.31 ± 0.096 to 2.31 ± 0.095.

First: ILGELKRVKSYMDKAKQ [LRP1]
Second: ILKDLIYRGVLNDENSD [SMC1]
The protein stability index of the first is higher: 2.23 ± 0.079 for the first, 1.81 ± 0.059 for the second.

First: ILLRYHHNDISNDSQSH [YCG1]
Second: ILQQRSKINSTELLDYA [MED4]
The protein stability index of the first is lower: 1.65 ± 0.15 for the first, 2.84 ± 0.086 for the second.

ILRKELSEEKEVIFTDV [MCD1] and ILSLATEGCIGLSQTEA [MCD1] are within error of each other in protein stability index: 2.66 ± 0.15 for the first, 2.58 ± 0.056 for the second.

Going from ILSQQFDKIIKIREDHI [SRB8] to ILTPESQLKKTKAQQKT [RPL7B], the protein stability index rises from 2.62 ± 0.066 to 2.86 ± 0.095.

First: ILTREVQNSTLAQLTSK [RPS1B]
Second: ILVDSLTGNQLPTPTPT [SWI1]
The protein stability index of the first is lower: 2.14 ± 0.069 for the first, 2.73 ± 0.066 for the second.

Going from IMATNRLDILDPALLRP [RPT6] to IMDELLSSIAERVRNFA [DIB1], the protein stability index falls from 2.92 ± 0.1 to 1.9 ± 0.065.

Going from IMKIGGIKLQMQNSKVE [SMC4] to IMKNKDFILSLLHHVSE [YJL039C/NUP192], the protein stability index rises from 2.11 ± 0.13 to 2.41 ± 0.12.

First: IMNVLSEGFEPTFSTHA [PRP8]
Second: INGINWRFHTPQKYVLH [SIN4]
The protein stability index of the first is higher: 2.86 ± 0.096 for the first, 2 ± 0.057 for the second.

Compared with INIQSFKDVEHISFNFS [BRR2], INKIVEILTNQQRGITY [YGR119C/NUP57] is lower in protein stability index: 2.67 ± 0.081 for the first, 1.64 ± 0.073 for the second.

Going from INKYESSPSHIELVVTE [RPL17A] to INNNINIPQQQQMQPPN [GAL11], the protein stability index rises from 2.08 ± 0.045 to 2.58 ± 0.07.

Compared with INQINEAHPTKVKNFGV [RPL20A], INTLNGGSSDTADKIRI [GAL11] is lower in protein stability index: 3.04 ± 0.074 for the first, 2.34 ± 0.098 for the second.

Compared with IPAAGNNRSVSMQTIAE [SRB5], IPAGIYWYWWKNGNEYN [QCR8] is lower in protein stability index: 3.09 ± 0.078 for the first, 2.35 ± 0.076 for the second.

Going from IPATIFDKVIYHLHPTF [TAF14] to IPHDLNFLQESYEVEHV [TAF14], the protein stability index rises from 2.61 ± 0.066 to 3.16 ± 0.096.

First: IPKQLLDDEKIFSQTTN [YJL039C/NUP192]
Second: IPMSKTIKDLVGGKSTV [FAS2]
The protein stability index of the first is lower: 2.55 ± 0.077 for the first, 2.96 ± 0.11 for the second.

Compared with IPSSKIDDFTTRLWGSV [SNU114], IPSSYIKRTDEGGEAEF [ARP7] is higher in protein stability index: 2.93 ± 0.16 for the first, 3.4 ± 0.16 for the second.

IPTNPVDNENNKPAIKE [SWI3] and IPVKLLNEAQGHIVSLE [SMD3] are within error of each other in protein stability index: 2.95 ± 0.074 for the first, 3.14 ± 0.12 for the second.

IQELEDQRDELLEQKKS [ITC1] and IQIMANIDQEGSKQADR [PGD1] are within error of each other in protein stability index: 3.21 ± 0.067 for the first, 3.2 ± 0.052 for the second.

Compared with IQKEEEPENNTVIEGVK [SWI3], IQNQSPQFNSPYDSNNS [SWI1] is lower in protein stability index: 3.3 ± 0.073 for the first, 2.97 ± 0.057 for the second.

IQRETLLPTNNGQPLNQ [GRR1] and IRCHREDCDLVIMALML [POP5] are within error of each other in protein stability index: 2.53 ± 0.072 for the first, 2.45 ± 0.053 for the second.

IRDNKLVSEKIINSTAL [RPC82] and IRDSGDRIDLRYSKRAG [RPO21] are within error of each other in protein stability index: 3.24 ± 0.2 for the first, 3.43 ± 0.18 for the second.

Compared with IREKVAKQALDLYHFAL [SNF2], IRINDEPILGQITLTFI [YML103C/NUP188] is lower in protein stability index: 2.52 ± 0.092 for the first, 2.21 ± 0.067 for the second.

Going from IRQYALATAHIYLSRFL [SSN8] to IRRLRVLRRLLAKYRDA [RPL19A], the protein stability index falls from 1.38 ± 0.034 to 1.19 ± 0.067.

IRRTFNIVNDFTPEEEA [SKP1] and IRSVALNDSNVKSFKPH [RRP42] are within error of each other in protein stability index: 2.71 ± 0.099 for the first, 2.63 ± 0.083 for the second.

Compared with ISAKDMGQGLCNNINKG [BRR2], ISALTQTEIKDIILGQN [PRP8] is lower in protein stability index: 3.13 ± 0.14 for the first, 2.1 ± 0.054 for the second.

Going from ISAPSMEDEILSLGMDF [BRN1] to ISEINFLHESSFDSIDH [CSI1], the protein stability index falls from 3.15 ± 0.057 to 2.54 ± 0.05.

First: ISEKDLVPKRCLFESLS [RPO31]
Second: ISEVMEDRNQRIKEMYW [FAS1]
The protein stability index of the first is lower: 2.59 ± 0.12 for the first, 3.07 ± 0.16 for the second.

First: ISGYKKFSSTSRYMQYN [RPT1]
Second: ISIPKTCDEIQNFENDF [REC8]
The protein stability index of the first is lower: 1.26 ± 0.18 for the first, 2.8 ± 0.077 for the second.

Going from ISIYNMLPPKSVKFTHI [SSN2] to ISKHSKQAIYTRAAASE [RPS25B], the protein stability index rises from 1.64 ± 0.069 to 2.74 ± 0.055.

ISKLFLRGDSVIVVLKT [SMD2] and ISLAVEGEPVNSPNYFV [COR1] are within error of each other in protein stability index: 2.87 ± 0.16 for the first, 3.09 ± 0.14 for the second.

Compared with ISLSVHTLALEFVNGGK [RRP46], ISMILRNISFSDNNSRI [SWI1] is higher in protein stability index: 2.49 ± 0.1 for the first, 3.02 ± 0.06 for the second.

First: ISNKDVIFKIRDRTSGQ [SRB4]
Second: ISNVIKPNQTIMVLDAS [SRP54]
The protein stability index of the first is higher: 3.42 ± 0.11 for the first, 2.48 ± 0.062 for the second.

Compared with ISPDPNLSIDEVAVPDR [RPO31], ISPSAPSKDSFTKYKPA [YAR002W/NUP60] is lower in protein stability index: 2.87 ± 0.089 for the first, 2.65 ± 0.079 for the second.

Compared with ISTACPRLDDVVVDTVE [SMC4], ISTAKAWGALITTFVKR [YML103C/NUP188] is lower in protein stability index: 3.51 ± 0.071 for the first, 1.82 ± 0.051 for the second.

Going from ISTSFCFICLLHLANEH [BRN1] to ISVARKIYDAFPQTAML [DIS3], the protein stability index rises from 1.67 ± 0.12 to 2.41 ± 0.098.

ITARSAFVEFGASVIAG [SWP82] and ITASTLLYADSLTAEAM [CYT1] are within error of each other in protein stability index: 1.93 ± 0.11 for the first, 2.1 ± 0.064 for the second.

Compared with ITHAHSLSNPNSTATMQ [PGD1], ITHRDLHYDKDYNLRIY [SSN8] is lower in protein stability index: 2.8 ± 0.055 for the first, 2.21 ± 0.051 for the second.

Going from ITHTENYNDLIVNYEDL [BRN1] to ITIFSPEGRLYQVEYAF [SCL1], the protein stability index falls from 3.17 ± 0.09 to 2.58 ± 0.15.

Going from ITKVTENLFSKEEVCQG [YMR129W/POM152] to ITLALADAGIELVDMAG [MTR3], the protein stability index falls from 2.95 ± 0.085 to 1.89 ± 0.072.

Compared with ITLRGVENIERVVMMKY [RPO21], ITSFLLSKMENVNLDDY [NAS6] is lower in protein stability index: 2.22 ± 0.12 for the first, 1.95 ± 0.11 for the second.

Compared with ITSIMDDLALPYQHPPN [ITC1], ITSLQDSSSQCIVDFTN [YMR129W/POM152] is lower in protein stability index: 3.17 ± 0.084 for the first, 2.67 ± 0.067 for the second.

Going from ITVHAPLLPIVEELMKK [SNU114] to ITVRYWLNGKMDSKGKI [RGR1], the protein stability index rises from 2.38 ± 0.068 to 3.27 ± 0.14.

Compared with IVALTNAKDKERLQLLE [SMC3], IVERETNWIIYPLWVMA [CSN12] is lower in protein stability index: 3.22 ± 0.19 for the first, 2.81 ± 0.19 for the second.

Compared with IVGKKIQEFLVVIEKRR [GRR1], IVISLKNTMFEKSDALV [SMC1] is lower in protein stability index: 3.23 ± 0.098 for the first, 2.42 ± 0.071 for the second.

Going from IVKRLYEYGAVSVLLIS [BRR2] to IVKTTTKQRLDAYYDLE [PRP8], the protein stability index rises from 2.57 ± 0.061 to 2.77 ± 0.092.

First: IVLDEVRNKSYPVYTRL [DIS3]
Second: IVMEDHGVLQGTSQNYG [MED1]
The protein stability index of the first is lower: 2.93 ± 0.051 for the first, 3.11 ± 0.059 for the second.

Going from IVPGTYIQERNPSQRPQ [RPS10B] to IVQAKEPNLAAQQDSTN [ECM29], the protein stability index falls from 3.01 ± 0.055 to 2.51 ± 0.11.

Compared with IVVAMTGKDCVAIACDL [PUP3], IVVVIEIITSLSMRFQR [SRB8] is higher in protein stability index: 1.38 ± 0.062 for the first, 2.5 ± 0.12 for the second.

Sequence IWKESLIELSGGQRSLI [SMC2] has a protein stability index of 1.75 ± 0.14.
